T1: recombinant human HGFA (Homo sapiens, UniProt Q04756)
T1 construct: purchased R&D Systems
T1 sequence (Q04756 408-655 limits assumed): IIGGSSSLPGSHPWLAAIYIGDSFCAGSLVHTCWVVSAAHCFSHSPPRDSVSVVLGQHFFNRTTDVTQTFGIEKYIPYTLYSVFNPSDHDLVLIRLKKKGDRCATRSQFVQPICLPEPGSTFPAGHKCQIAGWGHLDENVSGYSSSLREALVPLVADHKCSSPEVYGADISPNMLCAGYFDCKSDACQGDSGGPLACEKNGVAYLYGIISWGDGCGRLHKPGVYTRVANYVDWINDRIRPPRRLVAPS
T1 sequence (Q04756 373-407 partner limits assumed): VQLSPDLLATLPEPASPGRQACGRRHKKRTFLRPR

B1: HAI-1: recombinant human HAI-1, endogenous inhibitor of HGF activation, positive control (protein, UniProt O43278 36-529, looked up)
Kunitz-type protease …: GPPPAPPGLPAGADCLNSFTAGVPGFVLDTNASVSNGATFLESPTVRRGWDCVRACCTTQNCNLALVELQPDRGEDAIAACFLINCLYEQNFVCKFAPREGFINYLTREVYRSYRQLRTQGFGGSGIPKAWAGIDLKVQPQEPLVLKDVENTDWRLLRGDTDVRVERKDPNQVELWGLKEGTYLFQLTVTSSDHPEDTANVTVTVLSTKQTEDYCLASNKVGRCRGSFPRWYYDPTEQICKSFVYGGCLGNKNNYLREEECILACRGVQGGPLRGSSGAQATFPQGPSMERRHPVCSGTCQPTQFRCSNGCCIDSFLECDDTPNCPDASDEAACEKYTSGFDELQRIHFPSDKGHCVDLPDTGLCKESIPRWYYNPFSEHCARFTYGGCYGNKNNFEEEQQCLESCRGISKKDVFGLRREIPIPSTGSVEMAVAVFLVICIVVVVAILGYCFFKNQRKDFHGHHHHPPPTPASSTVSTTEDTEHLVYNHTTRPL

Columns and labels:
DiFi cells = DiFi cells co-cultured with WI38 fibroblasts, immunoblotting; assay type: cell-based; settings: gefitinib 0.5 μM
Experimental: Figure 7 Fibroblasts protect DiFi cells from EGFRi in an HGF-dependent manner DiFi cells were treated with gefitinib (0.5 μM) alone or were co-cultured with WI38 fibroblasts (FIB) in the absence or the presence of SRI 31215 (10 μM) or JNJ38877605 (1 μM). The DiFi cell lysates were isolated after 4 or 24 hours as indicated and examined for the expression of pERK and total ERK, pEGFR and total EGFR, cleaved PARP, β-catenin gelsolin and β-actin by immunoblotting.
Immunoblotting was performed using standard procedures. Membranes were blocked with 5% non-fat milk for 1 hour at RT, and incubated with primary antibodies overnight at 4°C. Primary antibodies used were anti-HGF (R&D Systems), anti-MET, anti-p-MET, anti-p-GAB1, anti-p-AKT, anti-p-ERK1/2, anti-vimentin (Cell Signaling Technology), anti-p-STAT3 (Upstate Cell Signaling Solutions), anti-E-cadherin (BD Transduction Laboratories), anti-β-actin (Sigma). Following washing with TBS-T buffer, membranes were incubated with horseradish peroxidase-conjugated secondary antibodies for 1 hour and then washed with TBS-T. Immunoblots were developed using the chemiluminescent detection system with ECL (Amersham). Protein loading was normalized by probing blots for the expression of β-actin.

RKO cells = assay: Clonogenic growth and viability of HGF-producing RKO cells with EGFR inhibitors; assay type: cell-based; settings: RKO cells, SRI 31215 10 μM, JNJ 38877605 1 μM, HAI-1 20 nM
Experimental: Figure 5 Inhibitors of HGF/MET signaling prevent the innate and acquired resistance to cetuximab A. and B. RKO cells were treated with cetuximab (50 μg/ml) (A) of gefitinib (B) alone, or in combination with SRI 31215 (10 μM), JNJ 38877605 (1 μM) or recombinant HAI-1 (20 nM) as indicated and clonogenic growth was monitored as described in Materials and Methods. C. and D. Caco2 cells were treated with cetuximab or gefitinib alone or in the presence of CM from fibroblasts and SRI 31215 (10 μM) or JNJ 38877605 (1 μM) as indicated. #: p<0.05, compared to control (CTRL); NS: not significant.
Cell titer-glo luminescent cell viability assay kit was purchased from Promega. […] For clonogenic assay, cells were seeded in 6-well plates at a density of 400 cells per well, serum starved overnight, and treated as indicated. After colony formation (8-12 days), cells were stained with crystal violet and the number of colonies was determined using ImageQuantTL (GE Health Care Life Sciences).
Supplementary Figure S3: Inhibition of HGF/MET signaling sensitizes HGF-producing RKO colon cancer cells to gefitinib. A. RKO cells (HGF+) and B. HT29 (HGF-) cells were treated with gefitinib (5 μM) in the absence or the presence of SRI 31215 (10 μM) or JNJ 38877605 (1 μM) as indicated and viability was determined 24 and 72 hours after treatment. # indicates statistical significance compared to samples treated with gefitinib alone as determined by Students’ t-test (p<0.05).
(also on this page, place not known: www.impactjournals.com/oncotarget/ Oncotarget, Materials 2016 Supplementary (HGF +) (HGF -)) […]

recombinant human HGFA = target: T1, recombinant human HGFA; assay: Proteolytic activation of pro-HGF by HGFA (immunoblotting); assay type: biochemical; settings: SRI 31215 10 μM, HAI-1 20 nM, HGFA 1 nM
Experimental: Recombinant human HAI-1, recombinant human HGFA, and recombinant human HGF propeptide (pro-HGF) were purchased from R&D Systems. SRI 31215 (10 μM) or recombinant human HAI-1 (20 nM) were mixed with activated recombinant human HGFA pro-peptide (1nM) in TNC buffer (pH 8.0) and incubated at room temperature for 30 minutes. Recombinant human pro-HGF (40 ng) was added and incubated at 37°C for 1 hour. The reaction was stopped by SDS-PAGE gel sample buffer and samples were boiled and separated by 12% PAGE. Proteins were transferred onto nitrocellulose membrane, blocked with 5% milk and immunoblotted using antibodies that recognize pro-HGF as well as α and β chains of activated HGF.

Molecule	levels of β-catenin (DiFi cells)	clonogenic growth, agent alone (RKO cells)	clonogenic growth, combination with cetuximab (RKO cells; cetuximab 50 μg/ml)	HGFA-induced cleavage of pro-HGF into alpha and beta chains (recombinant human HGFA)
COc1cc2ncnc(Nc3ccc(F)c(Cl)c3)c2cc1OCCCN1CCOCC1 [Gefitinib]	reduced			
B1		did not impact	significant decrease	inhibited

From article PMC5045412, “Inhibition of pro-HGF activation by SRI31215, a novel approach to block oncogenic HGF/MET signaling” (Oncotarget, 2016)
